From publication PMC3627495

Experiments:
[1] = biological target: His-YFP-EB3 and His-CFP-EB3, full-length wild type (human) (UniProt Q9UPY8); assay: FRET or BRET
[2] = biological target: His-YFP-EB3 S162E and His-CFP-EB3 S162E, full-length phospho-mimetic mutant (human) (UniProt Q9UPY8); assay: FRET or BRET

Q: What does the source list for “His-YFP-EB3 S162E and His-CFP-EB3 S162E, full-length phospho-mimetic mutant (from UniProt Q9UPY8 1-281) (natural protein)”?
A: t1/2 of chain exchange [1]: 1.01 h; t1/2 of chain exchange [2]: 1.39 h

Q: For “His-YFP-EB3 and His-CFP-EB3, full-length wild type (from UniProt Q9UPY8 1-281) (natural protein)”, which t1/2 of chain exchange [1] is on record?
A: 2.66 h
